This is an account of results in publication PMC9239237, “Salmonella Facilitates Iron Acquisition through UMPylation of Ferric Uptake Regulator” (mBio, 2022).

In data set [1] the target is T1, Fur (native, not UMPylated) (Escherichia coli K-12 substrain MG1655, UniProt P0A9A9 1-148).
T1 sequence: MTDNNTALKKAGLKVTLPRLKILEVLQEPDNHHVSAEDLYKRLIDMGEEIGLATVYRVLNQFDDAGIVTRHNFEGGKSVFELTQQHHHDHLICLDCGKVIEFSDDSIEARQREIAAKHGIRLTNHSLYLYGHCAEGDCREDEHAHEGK
Briefly: EMSA; shift at Fur:DNA molar ratio above 1; no metal addition stated; DNA annealed in 10 mM Tris-HCl pH 7.5, 150 mM NaCl; binding buffer not stated; 20 nM DNA, 37 C 10 min (Methods) vs 10 nmol DNA, 30 C 10 min (Fig. 4 legend); 6%. As to conditions: protein: recombinant; tags: His tag removed with PPase (pGL01); chain copies: 2; blunt.

Data set [2] deals with the molecule itself. Briefly: SEC; 100 ug protein on a Superdex 200 column; a 53-kDa protein and a 22-kDa protein run under the same conditions as controls.

B1: Fur box DNA (dsDNA)
DNA 1: GATAATGATAATGATAATGATAATGATAATGA
DNA 2: TCATTATCATTATCATTATCATTATCATTATC
For B1, in data set [1], the binding result is “binds”.

B2: E. coli Fur (ferric uptake regulator) purified from ydiU knockout E. coli, without UMPylation (natural protein, UniProt P0A9A9 1-148, looked up)
chain: MTDNNTALKKAGLKVTLPRLKILEVLQEPDNHHVSAEDLYKRLIDMGEEIGLATVYRVLNQFDDAGIVTRHNFEGGKSVFELTQQHHHDHLICLDCGKVIEFSDDSIEARQREIAAKHGIRLTNHSLYLYGHCAEGDCREDEHAHEGK
notes: Ferric uptake regulator Fur, E. coli K-12 substrain MG1655; fur gene amplified from genomic DNA and cloned into pGL01 (modified pET15b with a PPase cleavage site); also called Fur^dYdiU; native Fur; source: E. coli BL21(DE3) ydiU knockout strain, purified (Ni-NTA, His tag removed by PPase, Superdex 200)
On to B2, for which the “stoichiometry N” value in data set [2] was determined as 2.
